Laboratory results reported in patent US20230365658A1.
“And” between values parts separate entries of the source, which are not always exact repeats. Equal values may be shown once. Read-outs that look alike come from different tables or passages of the source.

Experiments:
[1] = biological target: COV2-RBD (rpk9) Wuhan-Hu-1 (WT) (SARS-CoV-2)
[2] = biological target: COV2-RBD (rpk9) B.1.1.529 (BA.1) (SARS-CoV-2); assay: Gyrolab immunoassay, reference titration, relative binding (%)
[3] = biological target: COV2-RBD (rpk9) Wuhan-Hu-1 (WT) (SARS-CoV-2); remark: listed apart in the source
[4] = biological target: COV2-RBD (rpk9) B.1.1.529 (BA.1) (SARS-CoV-2)
[5] = biological target: COV2-RBD (rpk9) Wuhan-Hu-1 (WT) (SARS-CoV-2); assay: Gyros full-curve immunoassay, mAb titrated on RBD, relative binding (FI)
[6] = biological target: COV2-RBD (rpk9) B.1.1.529 (BA.1) (SARS-CoV-2); assay: as above
[7] = biological target: SARS-CoV-2 Spike-RBD, Delta (SARS-CoV-2) (UniProt P0DTC2); assay: as above
[8] = biological target: SARS-CoV-2 spike (S) glycoprotein, Omicron BA.1.1 (SARS-CoV-2) (UniProt P0DTC2); assay: cell-based or functional assay
[9] = biological target: SARS-CoV-2 spike (S) glycoprotein, Omicron BA.1 (SARS-CoV-2) (UniProt P0DTC2); assay: cell-based or functional assay
[10] = biological target: SARS-CoV-2 spike (S) glycoprotein, Omicron BA.2 (SARS-CoV-2) (UniProt P0DTC2); assay: cell-based or functional assay
[11] = biological target: COV2-RBD (rpk9) Wuhan-Hu-1 (WT) (SARS-CoV-2); assay: Gyrolab full-curve immunoassay (LLNL Gyros) on RBD
[12] = biological target: COV2-RBD (rpk9) B.1.1.529 (BA.1) (SARS-CoV-2); assay: Gyrolab full-curve immunoassay (LLNL Gyros) on RBD
[13] = biological target: SARS-CoV-2 Spike-RBD, Delta (SARS-CoV-2) (UniProt P0DTC2); assay: Gyrolab immunoassay, reference titration, relative binding (%)
[14] = biological target: COV2-RBD (rpk9) Wuhan-Hu-1 (WT) (SARS-CoV-2); assay: Gyrolab immunoassay, IgG titrated on Spike-RBD, relative binding (FI)
[15] = biological target: COV2-RBD (rpk9) B.1.1.529 (BA.1) (SARS-CoV-2); assay: as above
[16] = biological target: SARS-CoV-2 spike (S) glycoprotein, Omicron BA.4 (SARS-CoV-2) (UniProt P0DTC2); assay: cell-based or functional assay
[17] = biological target: SARS-CoV-2 spike (S) glycoprotein, Delta (B.1.617.2) (SARS-CoV-2) (UniProt P0DTC2); assay: cell-based or functional assay
[18] = biological target: SARS-CoV-2 spike (S) glycoprotein, Omicron BA.5.5 (SARS-CoV-2) (UniProt P0DTC2); assay: cell-based or functional assay

COV2-2130 (antibody)
EC50 (read off the curve) [1]: 0.8 µg/mL | EC50 (read off the curve) [2]: 2 µg/mL | EC50 [3]: 1.72 µg/mL and 0.675 µg/mL | EC50 [4]: 2.77 µg/mL and 1.75 µg/mL

S309 (antibody)
EC50 (read off the curve) [5]: 2 µg/mL | EC50 (read off the curve) [6]: 4 µg/mL | EC50 (read off the curve) [7]: 2 µg/mL | pseudovirus neutralization IC50 [8]: 0.0332 µg/mL | pseudovirus neutralization IC50 [9]: 0.0632 µg/mL | pseudovirus neutralization IC50 [10]: 0.109 µg/mL | AUC(logC) [11]: 60.6 | AUC(logC) [12]: 53.2 | EC50 (read off the curve) [1]: 2 µg/mL | EC50 (read off the curve) [2]: 6 µg/mL | EC50 (read off the curve) [13]: 2 µg/mL | EC50 [3]: 5.76 µg/mL | EC50 [4]: 17.2 µg/mL | EC50 (read off the curve) [14]: 2 µg/mL | EC50 (read off the curve) [15]: 4 µg/mL

rDENV-2D22 (antibody)
authentic virus neutralization IC50 (FRNT) [16]: > 10 µg/mL | normalized pseudoneutralization IC50 [16]: > 10 µg/mL | authentic virus neutralization IC50 (FRNT) [8]: > 10 µg/mL | normalized pseudoneutralization IC50 [8]: > 10 µg/mL | authentic virus neutralization IC50 (FRNT) [9]: > 10 µg/mL | authentic virus neutralization IC50 (FRNT) [17]: > 10 µg/mL | authentic virus neutralization IC50 (FRNT) [18]: > 10 µg/mL

rS2K146 (antibody)
normalized pseudoneutralization IC50 [16]: 0.036 µg/mL | normalized pseudoneutralization IC50 [8]: 0.00209 µg/mL | normalized pseudoneutralization IC50 [9]: 0.00438 µg/mL | normalized pseudoneutralization IC50 [10]: 0.00336 µg/mL
